Data reported in the RNAGym collection of RNA variant scans (doi:10.1073/pnas.2313332121).
This sample holds only a part of the variants without activity.

B1: TPR 5TU (parent)
chain: GGAUCUUCUCGAUCUAACAAAAAAGACAAAUCUGCCACAAAGCUUGAGAGCAUCUUCGGAUGCAGAGGCGGCAGCCUUCGGUGGCGCGAUAGCGCCAACGUUCUCAACUAUGACACGCAAAACGCGUGCUCCGUUGAAUGGAGUUUAUCAUG

Variants of: B1
Test: polymerase ribozyme fitness, log enrichment relative to wild type (log ratio); higher = more active; in vitro selection for triplet polymerase activity
In short: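 Mutant libraries were PCR-built and transcribed for each subunit of a heterodimeric triplet polymerase ribozyme and selected for one round in triplicate at −7 °C, frozen, before gel excision of extended constructs and streptavidin-bead capture. Input and output libraries were Illumina-sequenced, keeping genotypes with ≥10 input reads and ≥1 read per output. Fitness is a logarithmic ratio of genotype to wild-type enrichment, in base 2, using inverse-variance-weighted replicate averages.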

Variant | polymerase ribozyme fitness (log ratio)
GGAUCUUCUCGAUCUAACAAAAAAGACAAAUCUGCCACAAAGCUUGAGAUCAUCAUCGGAUGCAGAGGCGGCAGCCUUCGGUGGCGCGAUAGCGCCAACGUUCUCAACUAUGACACGCAAAACGCUUGCUCCGUUGAAUGGAGUUUAUCAUG [G50U U55A G126U] | -0.316
GGAUCUUCUCGAUCUAACAAAAAAGACAAAUCUGCCACAAAGCUUGAGAUCAUUUUCGGAUGCAGAGGCGGCAGCCUUCGGUGGCGCGAUAGAGCCAACGUUCUCAACUAUGACACGCAAAACGCGUGCUCCGUUUAAUGGAGUUUAUCAUG [G50U C54U C93A G136U] | -4.07
GGAUCUUCUCGAUCUAACAAAAAAGACAAAUCUGCCACAAAGCUUGAGAUCAUCUUCGGAUGCAGAGGCGGCAGCCUUCGGUGGCGCGAUAGCGCCAACGUUCUUAACUAUGACACGCAAAACGCGUGCUCCGUUGAAUGGAGUUUAUCAUG [G50U C105U] | 0.638
GGAUCUUCUCGAUCUAACAAAAAAGACAAAUCUGCCACAAAGCUUGAGAUCAUCUUAGGAUGCAGAGGCGGUAGCCUUCGGUGACGCGAUAGCGCCAACGUUCUCAACUAUGACACGCAAAACGCGUGCUCCGUUGAAUGGAGUUUAUCAUG [G50U C57A C72U G84A] | -0.724
GGAUCUUCUCGAUCUAACAAAAAAGACAAAUCUGCCACAAAGCUUGAGAUCAUGUUCGGAUGCAGAGGCGGCAGCCUUCGGUGGCGCGAUAGCGCCAACGUUCUCAACUAUGACACGCAAAACGCGUGCUCCGUUGAAUGGAGUUUAUCAUG [G50U C54G] | -1.98
GGAUCUUCUCGAUCUAACAAAAAAGACAAAUCUGCCACAAAGCUUGAGAUCAUCUUCGGAUGCAGAGGCGGCAGCCAUCGGUGGCGAGAUAGCGCCAACGUUCUCAACUAUGACACGCAAAACGCGUGCUCCGUUGAAUGGAGUUUAUCAUG [G50U U77A C87A] | ≤ -4.2
GGAUCUUCUCGAUCUAACAAAAAAGACAAAUCUGCCACAAAGCUUGAGAUCAUCUUCGGAUGCAGAGGCGGCAACCUUCGGUGGUGCGAUAGCGCCAACGUUCUCAACUAUGACACGCAAAACGCGUGCUCCGUUGAAUGGAGUUUAUCAUG [G50U G74A C85U] | -3.88
GGAUCUUCUCGAUCUAACAAAAAAGACAAAUCUGCCACAAAGCUUGAGAUCAUCUUCGGAUGCAGAGGCGGCAGCCUACGGUGGCGCGAUAGCGCCAACGUUCUCAACUAUGACACGCAAAACGCGUGCUCCGUUGAAUGGAGUUUAUCAUG [G50U U78A] | ≤ -4.2
GGAUCUUCUCGAUCUAACAAAAAAGACAAAUCUGCCACAAAGCUUGAGAUCAUCUUCGGAUGCAGAGGCGGCAGCCUUCGGUGGCGUGAUAGCGCCAACGUUCUCAACUAUGAAACGCAAAACGCGUGCUCCGUUGAAUGGAGUUUAUCAUG [G50U C87U C114A] | -3.78
GGAUCUUCUCGAUCUAACAAAAAAGACAAAUCUGCCACAAAGCUUGAGAUCAUCUUCGGAAGCAGAGGCGGCAGCCUUCGGUGGCGCGAUAGGGCCAACGUUCUUAGCUAUGACACGCAAAACGCGUGCUCCGUUGAAUGGAGUUUAUCAUG [G50U U61A C93G C105U A107G] | ≤ -4.2
GGAUCUUCUCGAUCUAACAAAAAAGACAAAUCUGCCACAAAGCUUGAGAUCAUCUUAGGAUGCAGAGGCGGCAGCAUUCGGUGGCGCGAUAGCGCCAACGUUCUCAACUAUGACACGCAAAUCGCGUGCUGCGUUGAAUGGAGUUUAUCAUG [G50U C57A C76A A122U C131G] | ≤ -4.2
GGAUCUUCUCGAUCUAACAAAAAAGACAAAUCUGCCACAAAGCUUGAGAUCAUCUUCGGAUGCAGAGGCGGCAGCCUUCGGUGGCGCGAUAGCGCCAACGUUCUCAACUAUGACACGCAAAACGCGUGCUCCGUUGAAUGGAGUUUAUCGUG [G50U A150G] | -2.11
GGAUCUUCUCGAUCUAACAAAAAAGACAAAUCUGCCACAAAGCUUGAGAUCAUCUUCGGAUGCAGAGGCGGCAGCCUUCGGUGGCGCGAUAGCGGCAACGUUCACAACUAUGACACGCAAAACGCGUGCUCCGUUGAAUGGAGUUUAUCAUG [G50U C95G U104A] | -1.95
GGAUCUUCUCGAUCUAACAAAAAAGACAAAUCUGCCACAAAGCUUGAGAUCAUCUUCGGAUGCAGAGGCGGCAGCCUUCGGUGACGCGAUAGCGCCAACGUUCUCAACUAUGACACGCAAAACGCGUGCUCCGUUGAAUGGAGUUUAGCAUG [G50U G84A U148G] | ≤ -4.2
GGAUCUUCUCGAUCUAACAAAAAAGACAAAUCUGCCACAAAGCUUGAGAUCAUCUUCGGAUGCAGAGGCGGCAGCCUUCGGUGGCGCGAUAGCGACAACGUUCUCAACUAUGACACGCAAAACGGGUGCUCCGUUGAAUGGAGUUUAUCAUG [G50U C95A C125G] | -0.894
GGAUCUUCUCGAUCUAACAAAAAAGACAAAUCUGCCACAAAGCUUGAGAUCAUCUUCGGAUGCAGAGGCGGCAGCCUUCGGUGGCGCGAUAGCGCCAACGUUCUCAACUAUGACACGCAAAACGCCUGCUCCGUUGAUUGGAGUUUAUCAUG [G50U G126C A138U] | ≤ -4.2
GGAUCUUCUCGAUCUAACAAAAAAGACAAAUCUGCCACAAAGCUUGAGAGACUCUUCGGAUGCCGAGGCGGCAGCCUUCGGUGGCGCGAUAGCGUCAACGCUCUCAACUAUGACACGCAACACGCGUGCUCCCUGGAAUGGAGUUUAUCAUG [C51A A52C A64C C95U U101C A121C G133C U135G] | ≤ -4.2
GGAUCUUCUCGAUCUAACAAAAAAGACAAAUCUGCCACAAAGCUUGAGAUCAUCUUCGGAUGCAGAGGCGGCAGCCUUCGGUGUCGCGAUAGCGCCAACGUUCUCAACUAUGACACGCAAAACGCGUGCUCCGUUGAAUGGAGUUUAUCAUG [G50U G84U] | -1.81
GGAUCUUCUCGAUCUAACAAAAAAGACAAAUCUGCCACAAAGCUUGAGAUCAUCUUCGGAUGCAGAGGCGGCAGCCUUCGGUGGCGCGAUAGCGCCAACGUUCUCACCUAUGACACGCAAAACGCGUGCUCAGUUGAAUGGAGUUUAUCAUG [G50U A107C C132A] | ≤ -4.2

Variant | polymerase ribozyme fitness (log ratio)
GGAUCUUCUCGAUCUAACAAAAAAGACAAAUCUGCCACAAAGCUUGAGAGACUCUUCGGAUGCAGAGGCGGCAGCCUUCGGUGGCGCGAUAGCGCCAACGUUCUCAACUAUGACAUGAAAAACGCGUGCUCCGUUGAAUGGUGUUUAUCAUG [C51A A52C C116U C118A A142U] | ≤ -4.2
GGAUCUUCUCGAUCUAACAAAAAAGACAAAUCUGCCACAAAGCUUGAGAUCAUCUUCAGAUGCAGAGGCGGCAGCCUUCGGUGGCGCGAUAGCGCCAACGUUCUCAACUAUGACACGCAAAACGCGUGCUCCGUUGAAUGGAGUUUAUCAUG [G50U G58A] | 0.88
GGAUCUUCUCGAUCUAACAAAAAAGACAAAUCUGCCACAAAGCUUGAGAUCAUCUUCGGAUGCAGAGGCGGCAGCCUUCGGUGGCGCGAUUGCGCCAACGUUCUCAACUAUGACACGCAAAACGCGUGCUCCGUUGAAUGGAGUUUAUCAUG [G50U A91U] | ≤ -4.2
GGAUCUUCUCGAUCUAACAAAAAAGACAAAUCUGCCACAAAGCUUGAGAUCAUCUUCGGAUGCAGAGGCGGCAGCCUUCGGUGGCGCGAUGGCGCCAACGUUCUCAACUAUGACACGCAAAACGCGUGCUCCGUUGAAUGGAGUUUAUCAUG [G50U A91G] | -2.52
GGAUCUUCUCGAUCUAACAAAAAAGACAAAUCUGCCACAAAGCUUGAGAUCAUCUUCGGAUGCAGAGGCGGAAGCCUUCGGUGGCGCGCUAACGCCAACGUUCUCAACUAUGACACGCAAAACGCGUGAUCCGUUGGAUGGAGUUUAUCUUG [G50U C72A A89C G92A C129A A137G A150U] | ≤ -4.2
GGAUCUUCUCGAUCUAACAAAAAAGACAAAUCUGCCACAAAGCUUGAGAUCAUCUUCGGAUGCAGAGGCGGCAGCCUUCGGUGGCGUGAUAGCGCCAACGUUCUCAACUAUGACACGCAAAACGCGUGCUCCGUUGAAUGGAGUUUAUCAUG [G50U C87U] | -1.51
GGAUCUUCUCGAUCUAACAAAAAAGACAAAUCUGCCACAAAGCUUGAGAGACUCUUCGGAUGCAGAGGCGGCAGACUUCGGUUGCGCCAUGGCGCCAACGUUCUCAACUAUGACACGCAAAAGGCUUGCUCCGUUGAAUGGAGUUUUUCAGG [C51A A52C C75A G83U G88C A91G C123G G126U A147U U151G] | ≤ -4.2
GGAUCUUCUCGAUCUAACAAAAAAGACAAAUCUGCCACAAAGCUUGAGAUCAUCUUCGGAUGCAGAGGCGGCAGCCUUCGAUGGCGCGAUAGCGCGAACGUUCUCAACUAUGACACGCAAAACGCGUGCUCCGUUGAAUGGUGUUUAUCAUG [G50U G81A C96G A142U] | -2.59
GGAUCUUCUCGAUCUAACAAAAAAGACAAAUCUGCCACAAAGCUUGAGAUCAUCUUGGGAUGCAGAGGCGGCAGCCUUCGGUGGCGCGAUAGCGCCAACGUUCUCAACUAUGACACGCAAAACGCGUGCUCCGUUGAAUGGAGUUUAUCAUG [G50U C57G] | 0.0255
GGAUCUUCUCGAUCUAACAAAAAAGACAAAUCUGCCACAAAGCUUGAGAUCAUCUUCGGAUGCAGAGGCGGCAGCCUUCGGUAGCGCGAUAGCGGCAACGUUCUCAGCUAUGACACGCAAAACGCGUGCUCCGUUGAAUGGAGUUUAUCAUG [G50U G83A C95G A107G] | ≤ -4.2
GGAUCUUCUCGAUCUAACAAAAAAGACAAAUCUGCCACAAAGCUUGAGAUCAUCUACGGAUGCAGAGGCGGCAGCCUUCGGUGGCGCGAUGGCGCCAACGUUCUCAACUAUGACAUGCAAAACGCGUGCUCCGUUGAAUGGAGUUUAUCAUG [G50U U56A A91G C116U] | -2.81
GGAUCUUCUCGAUCUAACAAAAAAGACAAAUCUGCCACAAAGCUUGAGAUCAUCUUCGGAUGCAGAGGCGGCAGCCUUCGGUGGCGCGAUAGCGCCAACGUUCUCAACUAUGACACGCAAAGCGCGUGCUCCGUUGAAUGGAGUUUAACAUG [G50U A122G U148A] | -3.37
GGAUCUUCUCGAUCUAACAAAAAAGACAAAUCUGCCACAAAGCUUGAGAUCAUCUUCGGAUGCAGAGGCGGCAGCCUUCGGUAGCGCGAUAGCGCCUUCGUUCUCAACUAUGACACGCAAAACGCGUGCUCCGUUGAAUGGAGUUUAUCAUG [G50U G83A A97U A98U] | 0.0748
GGAUCUUCUCGAUCUAACAAAAAAGACAAAUCUGCCACAAAGCUUGAGAUCAUCUUCGGAGGCAGAGGCGGCAGCCUUCGGUGGCGCGAUAGCGCCAACGUUCUCAAUUAUGACACGCAAAACGCGUGCUCCGUAGAAUGGAGUUUAUCAUG [G50U U61G C108U U135A] | ≤ -4.2
GGAUCUUCUCGAUCUAACAAAAAAGACAAAUCUGCCACAAAGCUUGAGAUCAUCUUCGGAUGCAGAGGCGGUAGCCUUCGGUGGCGCGAUAGCGCCCACGUUCUCAACUAUGACACGCAAAACGCGUGCUCCGUUGAAUGGAGUUUAUCAUG [G50U C72U A97C] | -0.611
GGAUCUUCUCGAUCUAACAAAAAAGACAAAUCUGCCACAAAGCUUGAGAUCAUCUUCGGAUGCAGAGGCGGCAGCCUUCGGUGGCGCGAUAGGGCCAACGUUCUCAACUAUGACACGCAAAACGCGUGCUCCGUUGAAUGGAGUUUAUCAUG [G50U C93G] | -3.35
GGAUCUUCUCGAUCUAACAAAAAAGACAAAUCUGCCACAAAGCUUGAGAUCAUCUUCGGAUGCAGAGGCGGCAGCCUUCGGUGGCGCGAUAGCGCCAACGUUCUCAACUAUGCCACGCAAAACGCGUGCUCCGUUGAAGGGAGUUUAUCAUG [G50U A113C U139G] | -3.93
GGAUCUUCUCGAUCUAACAAAAAAGACAAAUCUGCCACAAAGCUUGAGAUCAUCUUCGGAUGCAGAGGCGGCAGCCUUCGGUGGCGCGAUAGCGACAACGUUCUCAACGAUGACACGCAAAACGCGUGCUCCGUUGAAUGGAGUUUAUCAUG [G50U C95A U109G] | -3.26
GGAUCUUCUCGAUCUAACAAAAAAGACAAAUCUGCCACAAAGCUUGAGAUCAUCUUCGGAUGCAGAGGCGGCAGCCUUCGGUGGCGCGUUAGUGCCAAUGUUCUCAACUAUGACACGCAAAACGCGUGCUCCGUUGAAUGGAGUAUAUCAUG [G50U A89U C93U C99U U145A] | -3.4
